Experimental data reported in the supplement of paper PMC10724198.
± gives the standard deviation of the averaged measurements.

Legend:
Saccharomyces cerevisiae [1] = assay: protein stability index of tFT-peptide fusion (C-terminal peptide) (PSI (0-1 scale)); higher = more stable (slower turnover)
Procedure: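 MPS profiling in S. cerevisiae of the tFT-X12 degron library: putative degron peptides plus stable controls, 12 aa, fused to the C-terminus of a sfGFP-mCherry timer. Cells are FACS-sorted into 8 mCherry/sfGFP bins and deep-sequenced. PSI runs from 0 (unstable) to 1 (stable). Backgrounds are wild type, das1Δ and doa10Δ at 30 °C, and wild type, das1Δ, cdc34-1 and cdc53-1 at 37 °C; 2-3 technical replicates each.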

Saccharomyces cerevisiae [2] = assay: as above; details: genetic background: wild type; temperature: 30 C
[3] = genetic background: cdc34-1, temperature: 37 C
[4] = genetic background: cdc53-1, temperature: 37 C
[5] = genetic background: das1 deletion, temperature: 30 C
[6] = genetic background: das1 deletion, temperature: 37 C
[7] = genetic background: doa10 deletion, temperature: 30 C
[8] = genetic background: wild type, temperature: 30 C
[9] = genetic background: wild type, temperature: 37 C
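Also: PSI is a weighted mean of sequencing reads over stability bins, variants kept only with over 10 reads, mCherry proximal and sfGFP distal, peptide attached via GGGS linker.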

Sequence | protein stability index (Saccharomyces cerevisiae [1]; [3]) | protein stability index (Saccharomyces cerevisiae [1]; [4]) | protein stability index (Saccharomyces cerevisiae [1]; [5]) | protein stability index (Saccharomyces cerevisiae [1]; [6]) | protein stability index (Saccharomyces cerevisiae [1]; [7]) | protein stability index (Saccharomyces cerevisiae [1]; [8]) | protein stability index (Saccharomyces cerevisiae [1]; [9]) | protein stability index (Saccharomyces cerevisiae [2])
CALFLLSSPSPT | 0.713 ± 0.061 | 0.781 ± 0.01 | 0.634 ± 0.018 | 0.768 ± 0.012 | 0.659 ± 0.021 | 0.6451 ± 0.0031 | 0.7356 ± 0.0054 | 0.699 ± 0.011
LGFFIFSFLILK | 0.0638 ± 0.017 | 0.0569 ± 0.025 | 0.189 ± 0.031 | 0.235 ± 0.011 | 0.263 ± 0.017 | 0.124 ± 0.036 | 0.221 ± 0.057 | 0.25 ± 0.015
GGHGGRRRKGVG | 0.36 ± 0.017 | 0.45 ± 0.0053 | 0.414 ± 0.019 | 0.435 ± 0.0098 | 0.409 ± 0.0082 | 0.381 ± 0.0054 | 0.439 ± 0.013 | 0.41 ± 0.046
FWCVFVFFVCVG | 0.255 ± 0.042 | 0.354 ± 0.006 | 0.258 ± 0.028 | 0.399 ± 0.013 | 0.231 ± 0.0025 | 0.238 ± 0.023 | 0.349 ± 0.017 | 0.275 ± 0.01
VLVSYAIVILYL | 0.128 ± 0.0017 | 0.141 ± 0.03 | 0.136 ± 0.043 | 0.293 ± 0.029 | 0.12 ± 0.008 | 0.149 ± 0.019 | 0.268 ± 0.026 | 0.193 ± 0.002
FFALYGHILGLF | 0.702 ± 0.02 | 0.7821 ± 0.0041 | 0.611 ± 0.023 | 0.7525 ± 0.0025 | 0.472 ± 0.028 | 0.491 ± 0.016 | 0.685 ± 0.052 | 0.4957 ± 0.0022
LVCSRFLFAFHC | 0.45678 ± 0.00016 | 0.686 ± 0.022 | 0.604 ± 0.037 | 0.699 ± 0.014 | 0.076 ± 0.0097 | 0.0796 ± 0.0047 | 0.104 ± 0.012 | 0.145 ± 0.011
GVRRRQLIWSVC | 0.532 ± 0.022 | 0.644 ± 0.014 | 0.468 ± 0.024 | 0.656 ± 0.0066 | 0.145 ± 0.0088 | 0.164 ± 0.039 | 0.28 ± 0.011 | 0.241 ± 0.092
FLCLLASFVVCF | 0.3271 ± 0.00067 | 0.312 ± 0.008 | 0.281 ± 0.039 | 0.384 ± 0.029 | 0.249 ± 0.0083 | 0.285 ± 0.028 | 0.336 ± 0.015 | 0.363 ± 0.008
VPSPWVFSLFLH | 0.594 ± 0.059 | 0.689 ± 0.0095 | 0.604 ± 0.025 | 0.73 ± 0.012 | 0.14 ± 0.0025 | 0.139 ± 0.0022 | 0.283 ± 0.016 | 0.242 ± 0.033
WRVVVSCALHVC | 0.123 ± 0.014 | 0.167 ± 0.0054 | 0.169 ± 0.017 | 0.274 ± 0.0034 | 0.0395 ± 0.017 | 0.0423 ± 0.009 | 0.0863 ± 0.026 | 0.085736 ± 1.1e-05
MFTIYISFVFAF | 0.197 ± 0.0067 | 0.277 ± 0.0087 | 0.195 ± 0.029 | 0.3305 ± 0.00089 | 0.179 ± 0.017 | 0.214 ± 0.0098 | 0.2844 ± 0.0023 | 0.269 ± 0.039
WCAGCLGWWLQS | 0.683 ± 0.059 | 0.8029 ± 0.003 | 0.694 ± 0.015 | 0.791 ± 0.014 | 0.246 ± 0.01 | 0.316 ± 0.038 | 0.548 ± 0.012 | 0.415 ± 0.028
VQWPLLVVGCMG | 0.271 ± 0.016 | 0.312 ± 0.04 | 0.263 ± 0.029 | 0.401 ± 0.0053 | 0.211 ± 0.015 | 0.251 ± 0.036 | 0.361 ± 0.011 | 0.399 ± 0.028
CVLGWCSLIAWC | 0.201 ± 0.044 | 0.238 ± 0.032 | 0.234 ± 0.015 | 0.231 ± 0.011 | 0.245 ± 0.025 | 0.242 ± 0.0093 | 0.1967 ± 0.0017 | 0.284 ± 0.018
LLHQSVHSHIPP | 0.637 ± 0.0097 | 0.72 ± 0.013 | 0.638 ± 0.022 | 0.733 ± 0.021 | 0.641 ± 0.018 | 0.641 ± 0.024 | 0.6911 ± 0.0067 | 0.534 ± 0.052
ASGFLVIPLWVF | 0.41 ± 0.0072 | 0.4653 ± 0.0021 | 0.323 ± 0.029 | 0.491 ± 0.022 | 0.17 ± 0.0047 | 0.19 ± 0.018 | 0.255 ± 0.0083 | 0.294 ± 0.019
SAVLFLLFVYVR | 0.0536 ± 0.0084 | 0.081 ± 0.012 | 0.156 ± 0.026 | 0.234 ± 0.011 | 0.1678 ± 0.00051 | 0.14 ± 0.046 | 0.176 ± 0.023 | 0.254 ± 0.0093
WEISNFFGCFIG | 0.671 ± 0.031 | 0.758 ± 0.026 | 0.683 ± 0.044 | 0.772 ± 0.017 | 0.325 ± 0.0037 | 0.365 ± 0.01 | 0.552 ± 0.071 | 0.428 ± 0.028
LFLFFFLPPLLF | 0.4247 ± 0.0027 | 0.407 ± 0.0056 | 0.373 ± 0.025 | 0.484 ± 0.021 | 0.439 ± 0.018 | 0.366 ± 0.009 | 0.461 ± 0.026 | 0.446 ± 0.028
SSVCYFGLLFIV | 0.452 ± 0.038 | 0.561 ± 0.015 | 0.44 ± 0.026 | 0.623 ± 0.034 | 0.103 ± 0.0046 | 0.103 ± 0.022 | 0.139 ± 0.022 | 0.184 ± 0.0042
WSCFLLLLSLSL | 0.424 ± 0.056 | 0.4452 ± 0.0035 | 0.417 ± 0.039 | 0.5236 ± 0.0051 | 0.482 ± 0.013 | 0.411 ± 0.011 | 0.496 ± 0.011 | 0.45 ± 0.0067
VWFGGLAVCCGG | 0.398 ± 0.024 | 0.405 ± 0.037 | 0.303 ± 0.025 | 0.4815 ± 0.0022 | 0.2709 ± 0.0023 | 0.303 ± 0.03 | 0.43156 ± 0.00042 | 0.396 ± 0.042
